Data reported in patent US20120178694A1 (University of Pennsylvania, published 2012).
One block for each binder: values may come before it. Bridge positions count the residues as written; N and C are the ends. Square brackets hold non-standard residues; d marks the D form. Trp(1-Me) = Cn1cc(C[C@H](N)C(=O)O)c2ccccc21; NMeW = CN[C@@H](Cc1c[nH]c2ccccc12)C(=O)O; NMeH = CN[C@@H](Cc1c[nH]cn1)C(=O)O; NMeR = CN[C@@H](CCCNC(=N)N)C(=O)O; NMeQ = CN[C@@H](CCC(N)=O)C(=O)O; NMeD = CN[C@@H](CC(=O)O)C(=O)O; NMeC = CN[C@@H](CS)C(=O)O; Sar = CNCC(=O)O

Assays:
[1] = molecular target: T1, C3 purified from fresh human plasma (human, UniProt P01024 23-1663); experiment: cell-based or functional assay
T1 sequence (P01024 23-1663): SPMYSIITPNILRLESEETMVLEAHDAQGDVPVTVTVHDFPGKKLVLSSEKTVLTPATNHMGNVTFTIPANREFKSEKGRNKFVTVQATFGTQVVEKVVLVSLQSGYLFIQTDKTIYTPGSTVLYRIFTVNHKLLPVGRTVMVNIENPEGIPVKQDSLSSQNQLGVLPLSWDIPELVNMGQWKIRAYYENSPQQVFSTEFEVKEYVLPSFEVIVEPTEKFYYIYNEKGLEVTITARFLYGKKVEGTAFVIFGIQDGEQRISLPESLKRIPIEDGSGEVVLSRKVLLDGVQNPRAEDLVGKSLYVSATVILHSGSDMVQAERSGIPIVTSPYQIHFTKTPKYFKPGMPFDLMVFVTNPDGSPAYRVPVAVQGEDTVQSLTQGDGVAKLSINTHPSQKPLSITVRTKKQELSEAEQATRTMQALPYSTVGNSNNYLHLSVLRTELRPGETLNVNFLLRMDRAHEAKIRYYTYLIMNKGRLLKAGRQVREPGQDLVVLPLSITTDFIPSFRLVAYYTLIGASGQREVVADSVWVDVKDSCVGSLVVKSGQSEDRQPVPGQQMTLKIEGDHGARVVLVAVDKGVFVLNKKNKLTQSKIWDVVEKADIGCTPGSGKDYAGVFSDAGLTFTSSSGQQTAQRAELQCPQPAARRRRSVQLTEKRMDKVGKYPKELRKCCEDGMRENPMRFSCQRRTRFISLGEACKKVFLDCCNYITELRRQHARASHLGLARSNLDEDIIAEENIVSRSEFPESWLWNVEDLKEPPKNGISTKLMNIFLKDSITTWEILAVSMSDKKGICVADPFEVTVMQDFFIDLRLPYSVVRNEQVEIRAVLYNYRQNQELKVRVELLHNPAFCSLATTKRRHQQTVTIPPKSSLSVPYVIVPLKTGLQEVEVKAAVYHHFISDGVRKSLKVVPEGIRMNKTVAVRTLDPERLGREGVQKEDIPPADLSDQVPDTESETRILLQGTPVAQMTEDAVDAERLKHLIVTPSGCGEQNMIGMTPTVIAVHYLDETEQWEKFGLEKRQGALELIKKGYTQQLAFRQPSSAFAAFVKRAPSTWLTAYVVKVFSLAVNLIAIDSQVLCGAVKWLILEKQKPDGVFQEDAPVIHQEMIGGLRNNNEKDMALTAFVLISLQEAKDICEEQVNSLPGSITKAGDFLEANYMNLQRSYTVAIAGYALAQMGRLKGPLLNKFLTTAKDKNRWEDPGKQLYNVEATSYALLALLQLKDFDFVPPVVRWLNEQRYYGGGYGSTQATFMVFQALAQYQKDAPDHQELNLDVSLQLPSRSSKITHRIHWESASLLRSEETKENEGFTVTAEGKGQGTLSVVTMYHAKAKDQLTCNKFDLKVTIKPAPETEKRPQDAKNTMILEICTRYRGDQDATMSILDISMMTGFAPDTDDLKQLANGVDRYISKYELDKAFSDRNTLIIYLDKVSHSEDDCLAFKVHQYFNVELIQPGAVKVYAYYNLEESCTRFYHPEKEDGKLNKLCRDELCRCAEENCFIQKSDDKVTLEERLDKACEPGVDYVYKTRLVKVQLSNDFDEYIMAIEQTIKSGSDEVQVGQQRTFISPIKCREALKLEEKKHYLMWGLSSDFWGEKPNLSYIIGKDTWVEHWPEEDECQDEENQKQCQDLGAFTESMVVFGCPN

[2] = molecular target: T1, C3 purified from fresh human plasma; experiment: cell-based or functional assay; remark: listed apart in the source
[3] = molecular target: T1, C3 purified from fresh human plasma; experiment: ITC with C3; relative to peptide 14
Description: (§1) ITC analysis. All ITC experiments were performed with the Microcal VP-ITC calorimeter (Microcal Inc., Northampton, Mass.), using protein concentrations of 1.8-5 μM C3 in the cell and peptide concentrations of 40-100 μM of individual compstatin analogs in the syringe. All titrations were performed in PBS (10 mM phosphate buffer with 150 mM NaCl, pH 7.4) at 25° C. using multiple peptide injections of 2-7 μL each. The raw isotherms were corrected for the heats of dilution by subtracting the isotherms representing peptide injections into the buffer. The resulting isotherms were fitted to a single site of sites models using Origin 7.0 software, and the model that produced the lowest χ² value was deemed to be appropriate for the respective data set. The Gibbs free energy was calculated as ΔG=ΔH−TΔS. Each experiment was repeated at least twice.
(§2) Characterization of binding thermodynamics.

[4] = molecular target: T1, C3 purified from fresh human plasma; experiment: ITC; peptide titrated into C3, PBS, 25 C
Description: as §1, §2

biotinylated C3b = biotinylated C3b (UniProt P01024); experiment: SPR on immobilised C3b; ratio relative to peptide 14

B1: peptide 22 (peptide)
peptide: Ac-ICV[Trp(1-Me)]QDW[Sar]AHRCH-NH2
modifications: disulfide 2-12
SMILES: CC[C@H](C)[C@H](NC(C)=O)C(=O)N[C@H]1CSSC[C@@H](C(=O)N[C@@H](Cc2c[nH]cn2)C(N)=O)NC(=O)[C@H](CCCNC(=N)N)NC(=O)[C@H](Cc2c[nH]cn2)NC(=O)[C@H](C)NC(=O)CN(C)C(=O)[C@H](Cc2c[nH]c3ccccc23)NC(=O)[C@H](CC(=O)O)NC(=O)[C@H](CCC(N)=O)NC(=O)[C@H](Cc2cn(C)c3ccccc23)NC(=O)[C@H](C(C)C)NC1=O
- IC50, inhibition of classical pathway complement activation, ELISA [1]: 0.16 µM

B4: peptide 16 (peptide)
peptide: Ac-ICV[Trp(1-Me)]QDWGAHRCI-NH2
modifications: disulfide 2-12
SMILES: CC[C@H](C)[C@H](NC(=O)[C@@H]1CSSC[C@H](NC(=O)[C@@H](NC(C)=O)[C@@H](C)CC)C(=O)N[C@@H](C(C)C)C(=O)N[C@@H](Cc2cn(C)c3ccccc23)C(=O)N[C@@H](CCC(N)=O)C(=O)N[C@@H](CC(=O)O)C(=O)N[C@@H](Cc2c[nH]c3ccccc23)C(=O)NCC(=O)N[C@@H](C)C(=O)N[C@@H](Cc2c[nH]cn2)C(=O)N[C@@H](CCCNC(=N)N)C(=O)N1)C(N)=O
notes: Peptide 14 scaffold with Gly^8, Ile^13; also called 16 (6)
- -TΔΔS [3]: -1.3 kcal/mol
- rKD ITC [3]: 1.2 fold
- ΔΔG [3]: -0.2 kcal/mol
- ΔΔH [3]: 1 kcal/mol
- -TΔS [4]: 5.7 kcal/mol
- ΔG [4]: -10.9 kcal/mol
- ΔH [4]: -16.6 kcal/mol
- rKD SPR (biotinylated C3b): 1.1 fold
- rka (biotinylated C3b): 1 fold
- rkd (biotinylated C3b): 1 fold

B5: Ac-I[CVYQDWGAHR(NMe)C]T-NH2 (peptide)
peptide: Ac-ICVYQDWGAHR[NMeC]T-NH2
modifications: disulfide 2-12
SMILES: CC[C@H](C)[C@H](NC(C)=O)C(=O)N[C@H]1CSSC[C@@H](C(=O)N[C@H](C(N)=O)[C@@H](C)O)N(C)C(=O)[C@H](CCCNC(=N)N)NC(=O)[C@H](Cc2c[nH]cn2)NC(=O)[C@H](C)NC(=O)CNC(=O)[C@H](Cc2c[nH]c3ccccc23)NC(=O)[C@H](CC(=O)O)NC(=O)[C@H](CCC(N)=O)NC(=O)[C@H](Cc2ccc(O)cc2)NC(=O)[C@H](C(C)C)NC1=O
- IC50 (CP), inhibition of classical pathway complement activation, ELISA [2]: 154 µM
- IC50-fold change relative to peptide 1 [2]: 0.02 fold

B6: Ac-I[CVYQDWGA(NMe)HRC]T-NH2 (peptide)
peptide: Ac-ICVYQDWGA[NMeH]RCT-NH2
modifications: disulfide 2-12
SMILES: CC[C@H](C)[C@H](NC(C)=O)C(=O)N[C@H]1CSSC[C@@H](C(=O)N[C@H](C(N)=O)[C@@H](C)O)NC(=O)[C@H](CCCNC(=N)N)NC(=O)[C@H](Cc2c[nH]cn2)N(C)C(=O)[C@H](C)NC(=O)CNC(=O)[C@H](Cc2c[nH]c3ccccc23)NC(=O)[C@H](CC(=O)O)NC(=O)[C@H](CCC(N)=O)NC(=O)[C@H](Cc2ccc(O)cc2)NC(=O)[C@H](C(C)C)NC1=O
- IC50 (CP), inhibition of classical pathway complement activation, ELISA [2]: 94 µM
- IC50-fold change relative to peptide 1 [2]: 0.03 fold

B7: Ac-I[(NMe)CVYQDWGAHRC]T-NH2 (peptide)
peptide: Ac-I[NMeC]VYQDWGAHRCT-NH2
modifications: disulfide 2-12
SMILES: CC[C@H](C)[C@H](NC(C)=O)C(=O)N(C)[C@H]1CSSC[C@@H](C(=O)N[C@H](C(N)=O)[C@@H](C)O)NC(=O)[C@H](CCCNC(=N)N)NC(=O)[C@H](Cc2c[nH]cn2)NC(=O)[C@H](C)NC(=O)CNC(=O)[C@H](Cc2c[nH]c3ccccc23)NC(=O)[C@H](CC(=O)O)NC(=O)[C@H](CCC(N)=O)NC(=O)[C@H](Cc2ccc(O)cc2)NC(=O)[C@H](C(C)C)NC1=O
- IC50 (CP), inhibition of classical pathway complement activation, ELISA [2]: 7.5 µM
- IC50-fold change relative to peptide 1 [2]: 0.3 fold

B8: Ac-I[CVYQDW(NMe)GAHRC]T-NH2 (peptide)
peptide: Ac-ICVYQDW[Sar]AHRCT-NH2
modifications: disulfide 2-12
SMILES: CC[C@H](C)[C@H](NC(C)=O)C(=O)N[C@H]1CSSC[C@@H](C(=O)N[C@H](C(N)=O)[C@@H](C)O)NC(=O)[C@H](CCCNC(=N)N)NC(=O)[C@H](Cc2c[nH]cn2)NC(=O)[C@H](C)NC(=O)CN(C)C(=O)[C@H](Cc2c[nH]c3ccccc23)NC(=O)[C@H](CC(=O)O)NC(=O)[C@H](CCC(N)=O)NC(=O)[C@H](Cc2ccc(O)cc2)NC(=O)[C@H](C(C)C)NC1=O
- IC50 (CP), inhibition of classical pathway complement activation, ELISA [2]: 1.43 µM
- IC50-fold change relative to peptide 1 [2]: 1.7 fold

Now from value to binder:

- IC50 (CP), inhibition of classical pathway complement activation, ELISA [2]: 44 µM
- IC50-fold change relative to peptide 1 [2]: 0.06 fold
B2: Ac-I[CVYQ(NMe)DWGAHRC]T-NH2 (peptide)
peptide: Ac-ICVYQ[NMeD]WGAHRCT-NH2
modifications: disulfide 2-12
SMILES: CC[C@H](C)[C@H](NC(C)=O)C(=O)N[C@H]1CSSC[C@@H](C(=O)N[C@H](C(N)=O)[C@@H](C)O)NC(=O)[C@H](CCCNC(=N)N)NC(=O)[C@H](Cc2c[nH]cn2)NC(=O)[C@H](C)NC(=O)CNC(=O)[C@H](Cc2c[nH]c3ccccc23)NC(=O)[C@H](CC(=O)O)N(C)C(=O)[C@H](CCC(N)=O)NC(=O)[C@H](Cc2ccc(O)cc2)NC(=O)[C@H](C(C)C)NC1=O

- IC50 (CP), inhibition of classical pathway complement activation, ELISA [2]: 25 µM
- IC50-fold change relative to peptide 1 [2]: 0.1 fold
B3: Ac-I[CVYQD(NMe)WGAHRC]T-NH2 (peptide)
peptide: Ac-ICVYQD[NMeW]GAHRCT-NH2
modifications: disulfide 2-12
SMILES: CC[C@H](C)[C@H](NC(C)=O)C(=O)N[C@H]1CSSC[C@@H](C(=O)N[C@H](C(N)=O)[C@@H](C)O)NC(=O)[C@H](CCCNC(=N)N)NC(=O)[C@H](Cc2c[nH]cn2)NC(=O)[C@H](C)NC(=O)CNC(=O)[C@H](Cc2c[nH]c3ccccc23)N(C)C(=O)[C@H](CC(=O)O)NC(=O)[C@H](CCC(N)=O)NC(=O)[C@H](Cc2ccc(O)cc2)NC(=O)[C@H](C(C)C)NC1=O

- IC50 (CP), inhibition of classical pathway complement activation, ELISA [2]: 32 µM
- IC50-fold change relative to peptide 1 [2]: 0.08 fold
B9: Ac-I[CVYQDWGAH(NMe)RC]T-NH2 (peptide)
peptide: Ac-ICVYQDWGAH[NMeR]CT-NH2
modifications: disulfide 2-12
SMILES: CC[C@H](C)[C@H](NC(C)=O)C(=O)N[C@H]1CSSC[C@@H](C(=O)N[C@H](C(N)=O)[C@@H](C)O)NC(=O)[C@H](CCCNC(=N)N)N(C)C(=O)[C@H](Cc2c[nH]cn2)NC(=O)[C@H](C)NC(=O)CNC(=O)[C@H](Cc2c[nH]c3ccccc23)NC(=O)[C@H](CC(=O)O)NC(=O)[C@H](CCC(N)=O)NC(=O)[C@H](Cc2ccc(O)cc2)NC(=O)[C@H](C(C)C)NC1=O

- IC50 (CP), inhibition of classical pathway complement activation, ELISA [2]: 33 µM
- IC50-fold change relative to peptide 1 [2]: 0.07 fold
B10: Ac-I[CVY(NMe)QDWGAHRC]T-NH2 (peptide)
peptide: Ac-ICVY[NMeQ]DWGAHRCT-NH2
modifications: disulfide 2-12
SMILES: CC[C@H](C)[C@H](NC(C)=O)C(=O)N[C@H]1CSSC[C@@H](C(=O)N[C@H](C(N)=O)[C@@H](C)O)NC(=O)[C@H](CCCNC(=N)N)NC(=O)[C@H](Cc2c[nH]cn2)NC(=O)[C@H](C)NC(=O)CNC(=O)[C@H](Cc2c[nH]c3ccccc23)NC(=O)[C@H](CC(=O)O)NC(=O)[C@H](CCC(N)=O)N(C)C(=O)[C@H](Cc2ccc(O)cc2)NC(=O)[C@H](C(C)C)NC1=O
